Data from publication PMC7919418.
Like-named read-outs stand apart in the source and are kept apart here.

Tests used:
[1] = biological target: T1, SFiNX[wild type] (Panx-Nxf2-Nxt1-Ctp) (Drosophila melanogaster, UniProt Q9W2H9;Q9VV73;Q9V3H8;Q24117 263-541;541-841;1-133;1-89); assay: EMSA
[2] = biological target: T1, SFiNX[wild type] (Panx-Nxf2-Nxt1-Ctp); assay: EMSA; remark: listed apart in the source

T1 sequence (Q9W2H9 263-541, chain 1 of 3): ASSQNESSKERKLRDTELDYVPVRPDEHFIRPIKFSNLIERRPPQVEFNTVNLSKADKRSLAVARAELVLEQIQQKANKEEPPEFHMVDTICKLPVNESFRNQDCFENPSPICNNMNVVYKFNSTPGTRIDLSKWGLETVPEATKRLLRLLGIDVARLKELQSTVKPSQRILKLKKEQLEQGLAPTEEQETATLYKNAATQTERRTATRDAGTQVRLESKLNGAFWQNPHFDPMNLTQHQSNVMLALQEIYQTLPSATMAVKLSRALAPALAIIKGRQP
T1 sequence (Q9VV73 541-841, chain 2 of 3): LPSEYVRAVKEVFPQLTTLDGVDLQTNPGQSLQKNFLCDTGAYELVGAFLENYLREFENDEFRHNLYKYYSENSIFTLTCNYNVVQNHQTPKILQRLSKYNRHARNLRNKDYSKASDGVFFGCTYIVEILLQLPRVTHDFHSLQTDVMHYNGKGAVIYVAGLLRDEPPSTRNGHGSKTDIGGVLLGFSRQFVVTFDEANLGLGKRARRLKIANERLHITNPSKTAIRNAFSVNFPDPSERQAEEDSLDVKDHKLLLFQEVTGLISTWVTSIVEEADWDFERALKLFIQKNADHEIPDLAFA
T1 sequence (Q24117 whole entry, chain 4 of 3): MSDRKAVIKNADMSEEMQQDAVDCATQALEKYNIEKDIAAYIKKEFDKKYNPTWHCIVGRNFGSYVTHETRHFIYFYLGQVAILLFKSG

| Binder | binding result [1] | binding result [2] |
| --- | --- | --- |
| 25-bp dsDNA (dsDNA) DNA 1: ACGCTCAAGTCAGAGGTGGCGAAAC DNA 2: GTTTCGCCACCTCTGACTTGAGCGT | binds | – |
| CUCAUCUUGGUCGUACGCGGAAUAGUUUAAACUGU (ssRNA) [35-nt ssRNA] | – | binds |
| 35-bp dsRNA (dsRNA) RNA 1: CUCAUCUUGGUCGUACGCGGAAUAGUUUAAACUGU RNA 2: ACAGUUUAAACUAUUCCGCGUACGACCAAGAUGAG | binds | – |
